Experimental data: the supplement of paper PMC9732359
± gives the uncertainty stated by the source.

Assay: protein stability index of a GFP-peptide fusion (yeast GPS) (PSI 1-4); higher = more stable; sorted into four equal gates, so the index is relative within each strain
Summary of the method: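 Sequencing reads from sorted gates were used to score each peptide. The library consisted of tiled 17-residue yeast protein peptides fused downstream of GFP on a Cherry-expressing plasmid, pooled and carried in yeast. Mid-log cultures in leucine-free medium were split into four equal gates by GFP/Cherry ratio, and each gate's plasmids were PCR-amplified and Illumina-sequenced. The protein stability index adds up, over all gates, the read frequency multiplied by the gate number.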

Sequence | protein stability index (doa10∆) | protein stability index (pdr5∆) | protein stability index (san1∆) | protein stability index (ubr1∆)
IKNIGKSLKNNFYRPLL [YML103C/NUP188] | 2.6 ± 0.08 | 2.62 ± 0.1 | 2.7 ± 0.079 | 2.77 ± 0.078
IKQTFKNDLFVIWSEDN [RPO21] | 2.13 ± 0.057 | 2.32 ± 0.063 | 2.31 ± 0.058 | 2.36 ± 0.056
IKTRTVHELSKRVHTLL [ISW2] | 1.37 ± 0.091 | 1.49 ± 0.072 | 2.18 ± 0.17 | 1.49 ± 0.049
IKVENLNDTTEKSKALE [SMC2] | 3.07 ± 0.082 | 3.3 ± 0.092 | 3.35 ± 0.052 | 3.25 ± 0.059
ILEDDFAVALKNEPDYS [CDC53] | 3.3 ± 0.088 | 3.09 ± 0.14 | 3.24 ± 0.072 | 2.87 ± 0.12
ILGIHTSKMNLSEDVNL [RPT2] | 3.03 ± 0.12 | 3.16 ± 0.081 | 3 ± 0.13 | 3.14 ± 0.067
ILINTARIHAQNYLKTY [PRE9] | 2.01 ± 0.085 | 1.78 ± 0.073 | 2.55 ± 0.17 | 1.89 ± 0.06
ILKLLNGFMESAIVNED [SOH1] |  | 3.27 ± 0.18 | 3.41 ± 0.17 | 3.57 ± 0.22
ILLEPIYEVDITVHAPL [SNU114] | 2.57 ± 0.049 | 2.56 ± 0.06 | 2.43 ± 0.085 | 2.47 ± 0.046
ILLQHKEKLTVQDCRYS [POP1] | 2.53 ± 0.054 | 2.45 ± 0.049 | 2.31 ± 0.05 | 2.42 ± 0.03
ILLSHHRASPADVSIKS [POP5] | 2.79 ± 0.24 | 3.4 ± 0.18 | 3.24 ± 0.062 | 
ILNDIETLEHNPVALEQ [BRR2] | 2.95 ± 0.08 | 3.25 ± 0.1 | 3.18 ± 0.079 | 3.13 ± 0.077
ILPQQSKLKLKNLLRKN [ECM29] | 2.39 ± 0.089 | 1.79 ± 0.051 | 2.01 ± 0.07 | 2.25 ± 0.074
ILTGTPLQNNLPELWAL [SNF2] | 2.24 ± 0.05 | 2.4 ± 0.044 | 2.15 ± 0.055 | 2.3 ± 0.043
ILTSLMRSKLEKLTLVT [CSN9] | 2.42 ± 0.081 | 3.03 ± 0.064 | 2.87 ± 0.06 | 2.67 ± 0.059
ILVPDLYHLVIMKFQSL [ECM29] | 1.28 ± 0.081 | 1.3 ± 0.086 | 1.12 ± 0.15 | 1.38 ± 0.063
IMAKRPFDKKSNSALFR [FAS1] | 2.84 ± 0.059 | 2.9 ± 0.062 | 2.87 ± 0.046 | 2.89 ± 0.05
IMDNDPVLFNRQPSLHK [RPO21] | 1.77 ± 0.074 | 2.17 ± 0.069 | 2.26 ± 0.23 | 1.84 ± 0.074
IMNLITNEPCGAQFSRS [RPN4] |  | 3.1 ± 0.3 |  | 2.96 ± 0.17
IMWQLLDGVSYLHQNWV [SSN3] | 1.61 ± 0.074 | 1.59 ± 0.08 | 1.23 ± 0.12 | 1.75 ± 0.076
INAQGEEIVVVASADYE [PRP8] | 2.91 ± 0.09 | 3.33 ± 0.096 | 2.78 ± 0.07 | 2.73 ± 0.04
INIQKKLEPKEIVRDIL [SIR4] | 3.05 ± 0.085 | 3.19 ± 0.12 | 2.85 ± 0.12 | 2.86 ± 0.11
INLTQTYGISVVDVALK [NUT1] | 2.24 ± 0.077 | 1.91 ± 0.054 | 1.76 ± 0.1 | 2.55 ± 0.038
INQIFSPEEQRSLLQEA [GAL11] | 2.95 ± 0.12 | 3.07 ± 0.063 | 3.53 ± 0.11 | 3.03 ± 0.1
INSGTFVKVTKATLELL [RPL7A] | 3.01 ± 0.1 | 2.92 ± 0.092 | 2.65 ± 0.12 | 2.9 ± 0.12
IPDMSKNVELGWKPLRY [SNU114] | 3.29 ± 0.24 | 3.23 ± 0.23 | 2.58 ± 0.23 | 3.22 ± 0.15

Sequence | protein stability index (doa10∆) | protein stability index (pdr5∆) | protein stability index (san1∆) | protein stability index (ubr1∆)
IPGEEVEETEVPTVPPS [MED4] | 2.66 ± 0.11 | 2.42 ± 0.11 | 2.44 ± 0.13 | 2.62 ± 0.059
IPGMSNMMNQVGEEETS [SRP54] |  |  | 2.14 ± 0.29 | 
IPIGHVHVIHFQHADNS [AAR2] | 2.86 ± 0.11 | 2.71 ± 0.073 | 2.9 ± 0.074 | 2.65 ± 0.05
IPQDFENEVSDIDVTIV [ESC2] | 2.96 ± 0.096 | 2.34 ± 0.092 | 2.77 ± 0.11 | 2.42 ± 0.054
IPSIPNPIANHTVTNSP [SNF5] | 2.46 ± 0.039 | 2.68 ± 0.036 | 2.45 ± 0.041 | 2.6 ± 0.027
IPTKESLTRDFEQCCKE [YIL149C/MLP2] | 2.81 ± 0.078 | 2.96 ± 0.13 | 2.62 ± 0.088 | 2.88 ± 0.13
IPVYCFSHPAHQQRMSR [YCG1] | 1.88 ± 0.037 | 2.04 ± 0.044 | 1.93 ± 0.046 | 2.04 ± 0.037
IPYSRNAPAWFKLSSES [RPS13] | 1.93 ± 0.058 | 1.92 ± 0.045 | 2.12 ± 0.074 | 2.44 ± 0.052
IQDSNGDVKNMEDVKIQ [SWI3] | 2.86 ± 0.071 | 2.8 ± 0.091 | 2.41 ± 0.1 | 2.94 ± 0.061
IQEFLVVIEKRRKKILN [GRR1] | 2.92 ± 0.091 | 2.74 ± 0.097 | 2.88 ± 0.083 | 2.94 ± 0.088
IQEYQLCDNFNHFSLSY [COR1] | 2.35 ± 0.049 | 2.61 ± 0.053 | 2.44 ± 0.055 | 2.27 ± 0.057
IQKQIETIQADLNHVTE [SMC2] | 2.96 ± 0.047 | 3.16 ± 0.053 | 2.96 ± 0.037 | 2.87 ± 0.039
IQRTRERKKSIGSQRGR [DSN1] | 2.94 ± 0.077 | 2.5 ± 0.063 | 2.56 ± 0.061 | 2.91 ± 0.069
IQWYKSLLEKDIDAVNG [ISW2] | 2.73 ± 0.085 | 3.02 ± 0.075 | 2.81 ± 0.2 | 2.82 ± 0.055
IRAQNFKSALANLEDII [RRP6] | 1.89 ± 0.06 | 1.75 ± 0.062 | 2.29 ± 0.091 | 1.41 ± 0.047
IRFVCLSNCLANARDFG [BRR2] | 2.09 ± 0.053 | 1.81 ± 0.052 | 1.72 ± 0.074 | 2.24 ± 0.044
IRIFRSELQRLSHENNV [RPT5] | 2.67 ± 0.11 | 3.21 ± 0.088 | 2.96 ± 0.052 | 2.9 ± 0.091
IRIYDLGKKKATVDEFP [RPL10] | 1.47 ± 0.054 | 1.51 ± 0.048 | 1.21 ± 0.098 | 1.29 ± 0.035
IRKLLEKINRMIIFLKN [CSI1] | 1.81 ± 0.079 | 1.5 ± 0.063 | 1.31 ± 0.11 | 1.19 ± 0.041
IRKLVKNGTIVKKAVTV [RPL19A] | 2.88 ± 0.17 | 3.08 ± 0.12 | 3.15 ± 0.12 | 3.28 ± 0.072
IRKQPDDIINNDEPSHK [SIR2] | 2.91 ± 0.065 | 2.95 ± 0.039 | 2.94 ± 0.04 | 2.83 ± 0.039
IRKSETSGRYASYRICM [RPB5] | 2.57 ± 0.088 | 2.89 ± 0.063 | 2.9 ± 0.072 | 2.97 ± 0.086
IRKTPLAQKKAHLAEIQ [RPL3] | 2.19 ± 0.1 | 1.39 ± 0.066 | 2.77 ± 0.12 | 1.26 ± 0.05
IRSERFKVARELKTEAA [ITC1] |  | 2.25 ± 0.25 |  | 
ISKHSKQAIYTRATASE [RPS25A] | 1.98 ± 0.056 | 2.03 ± 0.045 | 1.97 ± 0.072 | 1.85 ± 0.039
